Where two headings read alike, the source gives them in different places.

The subject of series [1] is T1, GST-Rab10 (human Rab10).
T1 sequence: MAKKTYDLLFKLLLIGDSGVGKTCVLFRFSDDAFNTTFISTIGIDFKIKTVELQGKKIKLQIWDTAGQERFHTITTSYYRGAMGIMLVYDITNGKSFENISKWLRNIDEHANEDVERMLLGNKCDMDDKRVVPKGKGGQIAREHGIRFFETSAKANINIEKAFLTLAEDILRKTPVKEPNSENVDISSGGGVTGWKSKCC

In series [2] the test system is GST-Rab2A [GST: P08515].
A further series addresses GST-Rab8A (dog Rab8A) (UniProt P61007).
In series [3] the test system is GST-Rab8B [GST: P08515].
Series [4] concerns the target T2, GST-Rab10 (human Rab10).
T2 chain: T1 sequence

In series [5] the target is GST-Rab14 (mouse Rab14), Q91V41.
GST-Rab14 (mouse Rab14), Q91V41, sequence (Q91V41 whole entry, looked up): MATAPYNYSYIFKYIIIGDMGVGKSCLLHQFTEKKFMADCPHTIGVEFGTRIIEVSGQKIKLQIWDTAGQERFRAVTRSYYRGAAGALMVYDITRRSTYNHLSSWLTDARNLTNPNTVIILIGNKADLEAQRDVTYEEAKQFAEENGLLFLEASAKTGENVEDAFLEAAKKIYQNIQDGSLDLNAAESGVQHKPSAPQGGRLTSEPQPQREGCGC
The target in series [6] is GST-Rab2A [GST: P08515]. This is another data set of the same source.
Series [7] addresses T3, GST-Rab8A (dog Rab8A), P61007.
T3 chain: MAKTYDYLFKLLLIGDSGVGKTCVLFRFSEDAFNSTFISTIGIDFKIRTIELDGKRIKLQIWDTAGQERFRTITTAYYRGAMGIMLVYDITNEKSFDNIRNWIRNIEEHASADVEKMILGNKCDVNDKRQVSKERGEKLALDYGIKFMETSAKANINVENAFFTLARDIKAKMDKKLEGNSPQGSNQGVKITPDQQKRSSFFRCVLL

In series [8] the target is GST-Rab8B [GST: P08515]. This is another data set of the same source.

On to “GST-GAP Arg/Lys (GST-GAP domain with Arg973 mutated to Lys)”, for which the “hydrolysis of Rab-bound [α^32P]GTP to GDP (thin layer chromatography)” value (from here on “hydrolysis of Rab-bound [α^32P]GTP”) with GST-Rab10 (human Rab10) [1] is “For each of Rab 2A, 8A, 8B, 10, and 14, the GAP Arg/Lys construct exhibited no significant activity”; in the series on GST-Rab2A [GST: P08515] [2] it was “For each of Rab 2A, 8A, 8B, 10, and 14, the GAP Arg/Lys construct exhibited no significant activity”; with GST-Rab8A (dog Rab8A), “For each of Rab 2A, 8A, 8B, 10, and 14, the GAP Arg/Lys construct exhibited no significant activity”; in the series with GST-Rab8B [GST: P08515] [3], “For each of Rab 2A, 8A, 8B, 10, and 14, the GAP Arg/Lys construct exhibited no significant activity”.

B1: AS160 GAP domain-GST fusion protein (protein)
chain: GASRDELQSRKVKLDYEEVGACQKEVLITWDKKLLNCRAKIRCDMEDIHTLLKEGVPKSRRGEIWQFLALQYRLRHRLPNKQQPPDISYKELLKQLTAQQHAILVDLGRTFPTHPYFSVQLGPGQLSLFNLLKAYSLLDKEVGYCQGISFVAGVLLLHMSEEQAFEMLKFLMYDLGFRKQYRPDMMSLQIQMYQLSRLLHDYHRDLYNHLEENEISPSLYAAPWFLTLFASQFSLGFVARVFDIIFLQGTEVIFKVALSLLSSQETLIMECESFENIVEFLKNTLPDMNTSEMEKIITQVFEMDISKQLHAYEVEYHVLQDELQESSYSCEDSETLEKLERANSQLKRQNMDLLEKLQVAHTKIQALESNLENLLTRETKMKSLIRTLEQEKMAYQKTVEQLRKLLPADALANCDLLLRDLNCNPNNKAKIGNKP
For the molecule B1, the “hydrolysis of Rab-bound [α^32P]GTP” value with GST-Rab10 (human Rab10) [4] is “the GAP domain markedly stimulated the hydrolysis of [α^32P]GTP bound to Rabs 2A, 8A, 8B, 10, and 14”. Also, in series [5], the “GAP activity in the presence of a 10-fold molar excess of GST as carrier protein” value is given as “the presence of excess GST did not inhibit the GAP activity”; the “GAP assay with GST-GAP domain attached to glutathione beads” value is reported as “the same molar amount of the GST-GAP domain attached to glutathione beads showed the expected activity against Rab14”; the “hydrolysis of Rab-bound [α^32P]GTP” value is “the GAP domain markedly stimulated the hydrolysis of [α^32P]GTP bound to Rabs 2A, 8A, 8B, 10, and 14”; the kcat/Km entry was “a kcat/Km value of 0.2 min^-1 µmolar^-1”. Also, the “rate of hydrolysis of the bound [α^32P]GTP with 130 nM GST-GAP domain” value in series [5] is “approximately 3% per minute with 130 nM GST-GAP domain”. In addition, the “hydrolysis of Rab-bound [α^32P]GTP” value with GST-Rab2A [GST: P08515] [6] was “the GAP domain markedly stimulated the hydrolysis of [α^32P]GTP bound to Rabs 2A, 8A, 8B, 10, and 14”. Moreover, the “hydrolysis of Rab-bound [α^32P]GTP” value in [7] is “the GAP domain markedly stimulated the hydrolysis of [α^32P]GTP bound to Rabs 2A, 8A, 8B, 10, and 14”. The “hydrolysis of Rab-bound [α^32P]GTP” value with GST-Rab8B [GST: P08515] [8] is “the GAP domain markedly stimulated the hydrolysis of [α^32P]GTP bound to Rabs 2A, 8A, 8B, 10, and 14”.

B2: recombinant GAP domain without GST (protein)
chain: B1 chain
B2: the “GAP activity compared with that of GST-GAP domain” value in series [5] is on record as “no difference was observed”.

B3: recombinant full-length FLAG-tagged AS160 (protein)
chain: MEPPSCIQDEPFPHPLEPEPGVSAQPGPGKPSDKRFRLWYVGGSCLDHRTTLPMLPWLMAEIRRRSQKPEAGGCGAPAAREVILVLSAPFLRCVPAPGAGASGGTSPSATQPNPAVFIFEHKAQHISRFIHNSHDLTYFAYLIKAQPDDPESQMACHVFRATDPSQVPDVISSIRQLSKAAMKEDAKPSKDNEDAFYNSQKFEVLYCGKVTVTHKKAPSSLIDDCMEKFSLHEQQRLKIQGEQRGPDPGEDLADLEVVVPGSPGDCLPEEADGTDTHLGLPAGASQPALTSSRVCFPERILEDSGFDEQQEFRSRCSSVTGVQRRVHEGSQKSQPRRRHASAPSHVQPSDSEKNRTMLFQVGRFEINLISPDTKSVVLEKNFKDISSCSQGIKHVDHFGFICRESPEPGLSQYICYVFQCASESLVDEVMLTLKQAFSTAAALQSAKTQIKLCEACPMHSLHKLCERIEGLYPPRAKLVIQRHLSSLTDNEQADIFERVQKMKPVSDQEENELVILHLRQLCEAKQKTHVHIGEGPSTISNSTIPENATSSGRFKLDILKNKAKRSLTSSLENIFSRGANRMRGRLGSVDSFERSNSLASEKDYSPGDSPPGTPPASPPSSAWQTFPEEDSDSPQFRRRAHTFSHPPSSTKRKLNLQDGRAQGVRSPLLRQSSSEQCSNLSSVRRMYKESNSSSSLPSLHTSFSAPSFTAPSFLKSFYQNSGRLSPQYENEIRQDTASESSDGEGRKRTSSTCSNESLSVGGTSVTPRRISWRQRIFLRVASPMNKSPSAMQQQDGLDRNELLPLSPLSPTMEEEPLVIFLSGEDDPEKIEERKKSKELRSLWRKAIHQQILLLRMEKENQKLEGASRDELQSRKVKLDYEEVGACQKEVLITWDKKLLNCRAKIRCDMEDIHTLLKEGVPKSRRGEIWQFLALQYRLRHRLPNKQQPPDISYKELLKQLTAQQHAILVDLGRTFPTHPYFSVQLGPGQLSLFNLLKAYSLLDKEVGYCQGISFVAGVLLLHMSEEQAFEMLKFLMYDLGFRKQYRPDMMSLQIQMYQLSRLLHDYHRDLYNHLEENEISPSLYAAPWFLTLFASQFSLGFVARVFDIIFLQGTEVIFKVALSLLSSQETLIMECESFENIVEFLKNTLPDMNTSEMEKIITQVFEMDISKQLHAYEVEYHVLQDELQESSYSCEDSETLEKLERANSQLKRQNMDLLEKLQVAHTKIQALESNLENLLTRETKMKSLIRTLEQEKMAYQKTVEQLRKLLPADALANCDLLLRDLNCNPNNKAKIGNKP
Take B3: the “GAP assay with protein attached to anti-FLAG beads” value in series [5] was “The full-length AS160 exhibited no significant activity above that of the Arg973Lys mutant with Rabs 2A, 8A, and 14 as substrates”; with GST-Rab2A [GST: P08515] [6], “The full-length AS160 exhibited no significant activity above that of the Arg973Lys mutant with Rabs 2A, 8A, and 14 as substrates”; in [7], “The full-length AS160 exhibited no significant activity above that of the Arg973Lys mutant with Rabs 2A, 8A, and 14 as substrates”.
